Data set [1] relates to myelin basic protein (MBP) (Millipore).
Data set [2] addresses myelin basic protein (MBP) (Millipore). In words: cell-based or functional assay.

With ERK1/2 immunoprecipitated from SS RBCs, the “phosphorylation of MBP by immunoprecipitated ERK1/2 (anti-phosphoMBP immunoblot)” value in data set [1] is “ERK1/2 immunoprecipitated from sham-treated SS RBCs was capable of phosphorylating MBP to some extent”.

The substance “ERK1/2 immunoprecipitated from SS RBCs (enzyme)” returned an MBP phosphorylation by ERK1/2 from epinephrine-treated SS RBCs compared to ERK1/2 from sham-treated cells (fold) in data set [2] of 2.1 fold.
